Test results from publication PMC6192259 (Molecular cell, 2017).
One block for each binder: values may come before it.

Columns and labels:
Dim1 = Dim1 (yeast, UniProt P41819 1-318); experiment: pull-down
MBP-Dim1 = MBP-Dim1 (yeast, UniProt P41819 1-318); experiment: pull-down
Sequence of MBP-Dim1 (P41819 whole entry): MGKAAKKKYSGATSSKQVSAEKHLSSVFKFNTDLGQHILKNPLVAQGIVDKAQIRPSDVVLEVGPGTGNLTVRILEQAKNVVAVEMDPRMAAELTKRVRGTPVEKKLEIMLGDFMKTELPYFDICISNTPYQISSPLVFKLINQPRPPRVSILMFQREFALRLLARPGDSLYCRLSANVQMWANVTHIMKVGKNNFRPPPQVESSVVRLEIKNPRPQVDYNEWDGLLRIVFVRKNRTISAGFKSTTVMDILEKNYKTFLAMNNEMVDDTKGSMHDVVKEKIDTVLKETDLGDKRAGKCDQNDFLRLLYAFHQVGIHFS

Sequence of Dim1 (P41819 whole entry): as above

- binding result (Dim1): binds
B1: MBP-Fap7 (enzyme, yeast, UniProt Q12055 1-197, looked up)
chain: MEARRYGPNIIVTGTPGCGKSSTCEFLKNKLKDYKYYNISDFAKDNDCFEGYDEGRKSHIVDEDKLLDMLEPLLRQGNSIVDWHVNDVFPERLIDLVVVLRCDNSNLYSRLHARGYHDSKIEENLDAEIMGVVKQDAVESYEPHIVVELQSDTKEDMVSNVSRIVAWEKMWLEQHPDGVTNEYQGPRSDDEDDEDSE

- binding result (MBP-Dim1): binds
B2: Fap7 (enzyme, yeast, UniProt Q12055 1-197, looked up)
chain: B1 chain
